Values of other authors, collected in patent US4786501A, “Cylindrical implants for the controlled release of growth hormones” (International Minerals & Chemical Corp., priority 1985, dated 1988).

Key:
young swine = conditions: field trials
cows = conditions: field trials, Machlin 1973

B1: native PGH: native porcine growth hormone, protein containing 191 amino acid residues (protein, UniProt P01248 27-216, looked up)
Somatotropin: FPAMPLSSLFANAVLRAQHLHQLAADTYKEFERAYIPEGQRYSIQNAQAAFCFSETIPAPTGKDEAQQRSDVELLRFSLLLIQSWLGPVQFLSRVFTNSLVFGTSDRVYEKLKDLEEGIQALMRELEDGSPRAGQILKQTYDKFDTNLRSDDALLKNYGLLSCFKKDLHKAETYLRVMKCRRFVESSCAF
growth rates (young swine): increased growth rates

B2: BGH: bovine growth hormone purified from pituitary glands, protein containing 191 amino acid residues (protein, UniProt P01246 27-217, looked up)
Somatotropin: AFPAMSLSGLFANAVLRAQHLHQLAADTFKEFERTYIPEGQRYSIQNTQVAFCFSETIPAPTGKNEAQQKSDLELLRISLLLIQSWLGPLQFLSRVFTNSLVFGTSDRVYEKLKDLEEGILALMRELEDGTPRAGQILKQTYDKFDTNMRSDDALLKNYGLLSCFRKDLHKTETYLRVMKCRRFGEASCAF
feed-to-milk conversion (cows): improved feed-to-milk conversion
milk production (cows): increased milk production
